Tested on: Escherichia coli TOP10
Assay: shrunken log2 fold change of peptide-encoding DNA abundance (4.5 h post-induction vs induction); higher = less antimicrobial activity (less host growth inhibition)
Conditions: time post-induction: 4.5 h; library: site-saturation at positions 5, 18, 19, 20
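Also: peptides expressed intracellularly from a pBAD plasmid library in pooled LB shake-flask culture, induced with 0.3% L-arabinose, DNA abundance read by NGS, three biological replicates, DESeq2 with apeglm shrinkage.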

Sequence	shrunken log2 fold change
RRIRTRPPRLPRPRPRPDFAPRP	0.176
RRIRWRPPRLPRPRPRPSVSPRP	0.104
RRIRYRPPRLPRPRPRPAANPRP	-0.0861
RRIRRRPPRLPRPRPRPTWNPRP	0.951
RRIRKRPPRLPRPRPRPFACPRP	-0.0138
RRIRWRPPRLPRPRPRPHHKPRP	-0.23
RRIRVRPPRLPRPRPRPKQQPRP	0.0386
RRIRQRPPRLPRPRPRPPAMPRP	-0.0312
RRIRIRPPRLPRPRPRPIRPPRP	-0.277
RRIRERPPRLPRPRPRPLCFPRP	-0.313
RRIRRRPPRLPRPRPRPAAEPRP	0.845
RRIRFRPPRLPRPRPRPFQKPRP	-0.00162
RRIRIRPPRLPRPRPRPDHYPRP	-0.38
RRIRKRPPRLPRPRPRPGAKPRP	1.16
RRIRTRPPRLPRPRPRPRGQPRP	0.411
RRIRNRPPRLPRPRPRPVYVPRP	-0.284
RRIRIRPPRLPRPRPRPMLAPRP	0.0524
RRIRHRPPRLPRPRPRPEVYPRP	-0.0062
RRIRMRPPRLPRPRPRPESVPRP	0.958
RRIRPRPPRLPRPRPRPSGCPRP	0.142
RRIRHRPPRLPRPRPRPKQEPRP	0.0169
RRIRMRPPRLPRPRPRPNKVPRP	0.0418
RRIRSRPPRLPRPRPRPLEKPRP	-0.0565
RRIRVRPPRLPRPRPRPIYHPRP	-0.461
RRIRKRPPRLPRPRPRPARWPRP	0.464

Sequence	shrunken log2 fold change
RRIRVRPPRLPRPRPRPDSDPRP	-0.0912
RRIRMRPPRLPRPRPRPNYYPRP	-0.576
RRIRIRPPRLPRPRPRPMPKPRP	-0.0638
RRIRVRPPRLPRPRPRPYPQPRP	-0.349
RRIRSRPPRLPRPRPRPCRCPRP	-0.358
RRIRFRPPRLPRPRPRPLSNPRP	-0.504
RRIRWRPPRLPRPRPRPHIPPRP	-0.227
RRIRCRPPRLPRPRPRPNDCPRP	-0.0147
RRIRRRPPRLPRPRPRPFMLPRP	0.0692
RRIRHRPPRLPRPRPRPRYYPRP	-0.332
RRIRERPPRLPRPRPRPAAFPRP	-0.0909
RRIRCRPPRLPRPRPRPPSTPRP	-0.0239
RRIRGRPPRLPRPRPRPRAGPRP	1.36
RRIRSRPPRLPRPRPRPMRAPRP	0.706
RRIRNRPPRLPRPRPRPNKFPRP	-0.597
RRIRPRPPRLPRPRPRPYPNPRP	-0.159
RRIRSRPPRLPRPRPRPTRMPRP	1.03
RRIRQRPPRLPRPRPRPAPTPRP	0.709
RRIRERPPRLPRPRPRPQKFPRP	-0.259
RRIRLRPPRLPRPRPRPLRTPRP	1.18
RRIRVRPPRLPRPRPRPHWPPRP	-0.122
RRIRYRPPRLPRPRPRPGRAPRP	0.17
RRIRFRPPRLPRPRPRPTGMPRP	0.00753
RRIRCRPPRLPRPRPRPFPRPRP	0.134
RRIRCRPPRLPRPRPRPACTPRP	-0.00637

Sequence	shrunken log2 fold change
RRIRARPPRLPRPRPRPGMQPRP	0.094
RRIRMRPPRLPRPRPRPDINPRP	3.07
RRIRPRPPRLPRPRPRPVCVPRP	0.146
RRIRVRPPRLPRPRPRPFMMPRP	0.097
RRIRSRPPRLPRPRPRPWSLPRP	-0.0411
RRIRDRPPRLPRPRPRPDFSPRP	0.0345
RRIRYRPPRLPRPRPRPQEWPRP	-0.000687
RRIRKRPPRLPRPRPRPVQWPRP	0.743
RRIRGRPPRLPRPRPRPDTYPRP	0.241
RRIRTRPPRLPRPRPRPHEPPRP	-0.197
RRIRHRPPRLPRPRPRPIMMPRP	0.013
RRIRARPPRLPRPRPRPRVRPRP	0.567
RRIRVRPPRLPRPRPRPISFPRP	0.0233
RRIRHRPPRLPRPRPRPTEMPRP	0.181
RRIRNRPPRLPRPRPRPGTKPRP	0.0372
RRIRGRPPRLPRPRPRPNMDPRP	0.265
RRIRPRPPRLPRPRPRPCYHPRP	-0.428
RRIRIRPPRLPRPRPRPLDTPRP	-0.142
RRIRMRPPRLPRPRPRPSYNPRP	-0.808
RRIRIRPPRLPRPRPRPHISPRP	-0.0489
RRIRGRPPRLPRPRPRPKQLPRP	-0.00285
RRIRMRPPRLPRPRPRPDDFPRP	0.938
RRIRMRPPRLPRPRPRPWVGPRP	0.171
RRIRLRPPRLPRPRPRPKACPRP	0.16
RRIRWRPPRLPRPRPRPHVQPRP	-0.209

Sequence	shrunken log2 fold change
RRIRYRPPRLPRPRPRPNGYPRP	0.122
RRIRNRPPRLPRPRPRPICLPRP	0.00214
RRIRMRPPRLPRPRPRPKPHPRP	1.19
RRIRDRPPRLPRPRPRPKKCPRP	0.0235
RRIRQRPPRLPRPRPRPGTRPRP	0.111
RRIRHRPPRLPRPRPRPGHNPRP	-0.166
RRIRLRPPRLPRPRPRPDEAPRP	0.189
RRIRWRPPRLPRPRPRPMRRPRP	0.481
RRIRFRPPRLPRPRPRPGHNPRP	-0.409
RRIRSRPPRLPRPRPRPWCIPRP	-0.0292
RRIRMRPPRLPRPRPRPKKEPRP	-0.0374
RRIRSRPPRLPRPRPRPSIVPRP	-0.525
RRIRKRPPRLPRPRPRPYCAPRP	-0.254
RRIRMRPPRLPRPRPRPMPVPRP	0.064
RRIRNRPPRLPRPRPRPWGPPRP	-0.37
RRIRCRPPRLPRPRPRPETIPRP	-0.0356
RRIRIRPPRLPRPRPRPLTEPRP	-0.044
RRIRHRPPRLPRPRPRPDFDPRP	0.0484
RRIRNRPPRLPRPRPRPRCVPRP	-0.0119
RRIRFRPPRLPRPRPRPAKVPRP	0.333
RRIRNRPPRLPRPRPRPSMCPRP	-0.0503
RRIRTRPPRLPRPRPRPKNYPRP	-0.346
RRIRERPPRLPRPRPRPRSRPRP	-0.195
RRIRARPPRLPRPRPRPKGKPRP	1.12
RRIRARPPRLPRPRPRPGRLPRP	0.895

Sequence	shrunken log2 fold change
RRIRRRPPRLPRPRPRPPEPPRP	0.977
RRIRWRPPRLPRPRPRPHPEPRP	0.275
RRIRSRPPRLPRPRPRPNANPRP	0.0564
RRIRGRPPRLPRPRPRPRADPRP	1.17
RRIRIRPPRLPRPRPRPIGFPRP	0.0766
RRIRRRPPRLPRPRPRPPRRPRP	1.34
RRIRHRPPRLPRPRPRPGAGPRP	0.395
RRIRERPPRLPRPRPRPCSHPRP	-0.0193
RRIRRRPPRLPRPRPRPCHDPRP	-0.105
RRIRYRPPRLPRPRPRPNIRPRP	0.0146
RRIRARPPRLPRPRPRPTHNPRP	0.523
RRIRYRPPRLPRPRPRPRVIPRP	-0.0396
RRIRQRPPRLPRPRPRPRCNPRP	-0.515
RRIRNRPPRLPRPRPRPAIWPRP	0.13
RRIRKRPPRLPRPRPRPFDAPRP	0.337
RRIRKRPPRLPRPRPRPWDRPRP	0.394
RRIRHRPPRLPRPRPRPWRQPRP	0.0449
RRIRERPPRLPRPRPRPFITPRP	-0.314
RRIRERPPRLPRPRPRPISNPRP	-0.25
RRIRRRPPRLPRPRPRPGFFPRP	0.268
RRIRYRPPRLPRPRPRPPANPRP	0.169
RRIRERPPRLPRPRPRPVVYPRP	-0.945
RRIRSRPPRLPRPRPRPQGTPRP	0.0846
RRIRTRPPRLPRPRPRPEMKPRP	0.258
RRIRDRPPRLPRPRPRPFKMPRP	-0.0853

Sequence	shrunken log2 fold change
RRIRWRPPRLPRPRPRPMAFPRP	-0.0177
RRIRTRPPRLPRPRPRPLDGPRP	0.0872
RRIRCRPPRLPRPRPRPHIPPRP	-0.245
RRIRYRPPRLPRPRPRPYWVPRP	-0.538
RRIRHRPPRLPRPRPRPTSEPRP	0.0261
RRIRRRPPRLPRPRPRPTKRPRP	0.145
RRIRHRPPRLPRPRPRPFRAPRP	-0.211
RRIRVRPPRLPRPRPRPHNDPRP	-0.318
RRIRNRPPRLPRPRPRPRSYPRP	-0.0727
RRIRDRPPRLPRPRPRPWYWPRP	0.000762
RRIRSRPPRLPRPRPRPNWWPRP	0.022
RRIRWRPPRLPRPRPRPGDHPRP	-0.0565
RRIRSRPPRLPRPRPRPMTCPRP	0.04
RRIRERPPRLPRPRPRPFPYPRP	-0.256
RRIRRRPPRLPRPRPRPLRGPRP	0.732
RRIRFRPPRLPRPRPRPPSIPRP	-0.0341
RRIRARPPRLPRPRPRPFPPPRP	0.332
RRIRRRPPRLPRPRPRPYGQPRP	0.501
RRIRRRPPRLPRPRPRPEANPRP	0.78
RRIRLRPPRLPRPRPRPDQVPRP	0.0207
RRIRQRPPRLPRPRPRPVNTPRP	-0.0633
RRIRKRPPRLPRPRPRPLGNPRP	0.094
RRIRCRPPRLPRPRPRPQSTPRP	-0.673
RRIRLRPPRLPRPRPRPEYIPRP	-0.312
RRIRIRPPRLPRPRPRPARHPRP	0.0869
